This is an account of results in the supplement of paper PMC11246515.

± gives the standard deviation of the averaged measurements. Some results are limits rather than exact numbers.

The data set is described as follows: total protein half-life in vivo (active degradation + dilution); higher = more stable protein.
Setting [1] is: E. coli NCM3722 delta-clpP delta-lon delta-hslV, growth: N-lim chemostat, doubling time 6 h.
Setting [2] is: E. coli NCM3722 delta-clpP, growth: N-lim chemostat, doubling time 6 h.
Setting [3] is: E. coli NCM3722 delta-hslV, growth: N-lim chemostat, doubling time 6 h.
Setting [4] is: E. coli NCM3722 delta-lon, growth: N-lim chemostat, doubling time 6 h.
Setting [5] is: E. coli NCM3722 delta-smpB, growth: N-lim chemostat, doubling time 6 h.
Where [6] appears, read: wild type E. coli NCM3722, growth: C-lim chemostat, doubling time 3 h.
Setting [7] is: wild type E. coli NCM3722, growth: C-lim chemostat, doubling time 6 h.
[8] abbreviates: wild type E. coli NCM3722, growth: C-lim chemostat, doubling time 12 h.
The mark [9] stands for this setting: wild type E. coli NCM3722, growth: N-lim chemostat, doubling time 6 h.
[10] abbreviates: wild type E. coli NCM3722, growth: N-lim chemostat, doubling time 12 h.
Setting [11] is: wild type E. coli NCM3722, growth: P-lim chemostat, doubling time 6 h.
[12] abbreviates: wild type E. coli NCM3722, growth: P-lim chemostat, doubling time 12 h.

For the sequence “MISVTLSQLTDILNGELQGADITLDAVTTDTRKLTPGCLFVALKGERFDAHDFADQAKAGGAGALLVSRPLDIDLPQLIVKDTRLAFGELAAWVRQQVPARVVALTGSSGKTSVKEMTAAILSQCGNTLYTAGNLNNDIGVPMTLLRLTPEYDYAVIELGANHQGEIAWTVSLTRPEAALVNNLAAAHLEGFGSLAGVAKAKGEIFSGLPENGIAIMNADNNDWLNWQSVIGSRKVWRFSPNAANSDFTATNIHVTSHGTEFTLQTPTGSVDVLLPLPGRHNIANALAAAALSMSVGATLDAIKAGLANLKAVPGRLFPIQLAENQLLLDDSYNANVGSMTAAVQVLAEMPGYRVLVVGDMAELGAESEACHVQVGEAAKAAGIDRVLSVGKQSHAISTASGVGEHFADKTALITRLKLLIAEQQVITILVKGSRSAAMEEVVRALQENGTC”, the “total protein half-life in vivo” value under setting [1] came out at 4.74 ± 0.18 h; the “total protein half-life in vivo” value under setting [2] worked out at 4.41 ± 0.27 h; the “total protein half-life in vivo” value under setting [3] was determined as 5.24 ± 0.92 h; the “total protein half-life in vivo” value under setting [4] came out at 4.44 ± 0.34 h; the “total protein half-life in vivo” value under setting [5] amounted to 4.68 ± 0.057 h; the “total protein half-life in vivo” value under setting [6] was 3.37 ± 0.67 h. In addition, the “total protein half-life in vivo” value is 6.24 ± 1.3 h under setting [7]; 9.83 ± 0.28 h under setting [8]; 4.48 ± 0.31 h under setting [9]; 7.03 ± 0.19 h under setting [10]; 5.79 ± 0.27 h under setting [11]; 10.2 ± 1.7 h under setting [12].
As to “MGRILLDLSNEVIKQLDDLEVQRNLPRADLLREAVDQYLINQSQTARTSVPGIWQGCEEDGVEYQRKLREEW [P0AFU6]”, the “total protein half-life in vivo” value under setting [2] turned out to be 6.89 h.
Consider “MEQRHITGKSHWYHETQSSTTEYDVLPLVPEAAKVSDPFLLDVILEKETLAPFLSWLDPARVLAVDLFPDQLTVTRSQTFTAYERLSTALTVAQVCGVQRLCNYYSARLTPLPGPDSTRESNHRLAQITQYARQLASSPSIIDNRSRQHLNDVGLTAWDCVIISQIIGFIGFQARTIATFQAYLGHPVRWLPGLEIQNYADASLFADESLRWRSSYEVEKLPEEHTKSSTAELCQLAEILSLHPISLSLLEKLLNSTRGNTQPDNQLAALLCARINGSPACFATCMDSSNEYKKISTLMRKGENEINQWADRHSVERATVQAIQWLTRAPDRFSAAQFSPLLEHEKSSTQIINLLVWSGLCGWINRLKIALGETY”, for which the “total protein half-life in vivo” value runs as follows: under setting [1], 6.43 ± 1.4 h; under setting [2], 1.97 ± 0.21 h; under setting [3], 1.97 ± 0.55 h; under setting [4], 1.26 h; under setting [5], 1.07 ± 0.024 h; under setting [6], 1.25 ± 0.085 h. Besides, the “total protein half-life in vivo” value is, setting by setting: under setting [7], 1.21 ± 0.12 h; under setting [8], 1.93 ± 0.13 h; under setting [9], 1.31 ± 0.044 h; under setting [10], 6.39 ± 6 h; under setting [11], 1.32 ± 0.4 h; under setting [12], 2.65 ± 0.49 h.
Turning to “MKKRVYLIAAVVSGALAVSGCTTNPYTGEREAGKSAIGAGLGSLVGAGIGALSSSKKDRGKGALIGAAAGAALGGGVGYYMDVQEAKLRDKMRGTGVSVTRSGDNIILNMPNNVTFDSSSATLKPAGANTLTGVAMVLKEYPKTAVNVIGYTDSTGGHDLNMRLSQQRADSVASALITQGVDASRIRTQGLGPANPIASNSTAEGKAQNRRVEITLSPL”, the “total protein half-life in vivo” value was determined as 5.47 h under setting [2]; 6.78 ± 0.46 h under setting [3]; 6.16 ± 0.47 h under setting [4]; 5.3 ± 0.5 h under setting [5]; 2.78 ± 0.1 h under setting [6]; 5.45 ± 0.11 h under setting [7]. The “total protein half-life in vivo” value was 5.81 ± 0.95 h under setting [9], 12.6 h under setting [10], 5.82 h under setting [11] and 11.4 ± 0.82 h under setting [12].
As to “MNYSLKQLKVFVTVAQEKSFSRAGERIGLSQSAVSHSVKELENHTGVRLLDRTTREVVLTDAGQQLALRLERLLDELNSTLRDTGRMGQQLSGKVRVAASQTISAHLIPQCIAESHRRYPDIQFVLHDRPQQWVMESIRQGDVDFGIVIDPGPVGDLQCEAILSEPFFLLCHRDSALAVEDYVPWQALQGAKLVLQDYASGSRPLIDAALARNGIQANIVQEIGHPATLFPMVAAGIGISILPALALPLPEGSPLVVKRITPVVERQLMLVRRKNRSLSTAAEALWDVVRDQGNALMAGREGDPLYQI [P0ACR7]”, the “total protein half-life in vivo” value runs as follows: under setting [1], 6.06 ± 0.61 h; under setting [2], 4.84 ± 0.076 h; under setting [3], 5.19 ± 0.28 h; under setting [6], 2.84 h; under setting [8], 12.5 ± 1.6 h; under setting [9], 4.85 ± 0.15 h. Besides, the “total protein half-life in vivo” value was determined as 9.2 ± 0.89 h under setting [10], 3.88 h under setting [11] and 6.14 ± 1.9 h under setting [12].
“MIPLQHGLILAAILFVLGLTGLVIRRNLLFMLIGLEIMINASALAFVVAGSYWGQTDGQVMYILAISLAAAEASIGLALLLQLHRRRQNLNIDSVSEMRG [P0AFE4]”: the “total protein half-life in vivo” value by setting is: under setting [2], 6.43 h; under setting [3], 7.8 h; under setting [4], more than 8 h; under setting [5], 5.17 h; under setting [6], 3.31 h; under setting [7], 7.48 ± 0.41 h. For the same sequence, the “total protein half-life in vivo” value was 11.7 h under setting [8], 7.16 ± 0.3 h under setting [11] and 13.1 ± 1.5 h under setting [12].
As for “MSVRLVLAKGREKSLLRRHPWVFSGAVARMEGKASLGETIDIVDHQGKWLARGAYSPASQIRARVWTFDPSESIDIAFFSRRLQQAQKWRDWLAQKDGLDSYRLIAGESDGLPGITIDRFGNFLVLQLLSAGAEYQRAALISALQTLYPECSIYDRSDVAVRKKEGMELTQGPVTGELPPALLPIEEHGMKLLVDIQHGHKTGYYLDQRDSRLATRRYVENKRVLNCFSYTGGFAVSALMGGCSQVVSVDTSQEALDIARQNVELNKLDLSKAEFVRDDVFKLLRTYRDRGEKFDVIVMDPPKFVENKSQLMGACRGYKDINMLAIQLLNEGGILLTFSCSGLMTSDLFQKIIADAAIDAGRDVQFIEQFRQAADHPVIATYPEGLYLKGFACRVM”, the “total protein half-life in vivo” value runs as follows: under setting [1], 5.39 ± 0.22 h; under setting [2], 5.51 ± 0.19 h; under setting [3], 5.55 ± 0.16 h; under setting [4], 6.51 ± 0.56 h; under setting [5], 5.25 ± 0.27 h; under setting [6], 3.02 ± 0.1 h. In addition, the “total protein half-life in vivo” value worked out at 6.57 ± 0.19 h under setting [7]; 11.32 ± 0.082 h under setting [8]; 6.03 ± 0.6 h under setting [9]; 11.3 ± 1.5 h under setting [10]; 6.28 ± 1.2 h under setting [11]; 13.1 ± 1.7 h under setting [12].
With “MKKRIPTLLATMIATALYSQQGLAADLASQCMLGVPSYDRPLVQGDTNDLPVTINADHAKGDYPDDAVFTGSVDIMQGNSRLQADEVQLHQKEAPGQPEPVRTVDALGNVHYDDNQVILKGPKGWANLNTKDTNVWEGDYQMVGRQGRGKADLMKQRGENRYTILDNGSFTSCLPGSDTWSVVGSEIIHDREEQVAEIWNARFKVGPVPIFYSPYLQLPVGDKRRSGFLIPNAKYTTTNYFEFYLPYYWNIAPNMDATITPHYMHRRGNIMWENEFRYLSQAGAGLMELDYLPSDKVYEDEHPNDDSSRRWLFYWNHSGVMDQVWRFNVDYTKVSDPSYFNDFDNKYGSSTDGYATQKFSVGYAVQNFNATVSTKQFQVFSEQNTSSYSAEPQLDVNYYQNDVGPFDTRIYGQAVHFVNTRDDMPEATRVHLEPTINLPLSNNWGSINTEAKLLATHYQQTNLDWYNSRNTTKLDESVNRVMPQFKVDGKMVFERDMEMLAPGYTQTLEPRAQYLYVPYRDQSDIYNYDSSLLQSDYSGLFRDRTYGGLDRIASANQVTTGVTSRIYDDAAVERFNISVGQIYYFTESRTGDDNITWENDDKTGSLVWAGDTYWRISERWGLRGGIQYDTRLDNVATSNSSIEYRRDEDRLVQLNYRYASPEYIQATLPKYYSTAEQYKNGISQVGAVASWPIADRWSIVGAYYYDTNANKQADSMLGVQYSSCCYAIRVGYERKLNGWDNDKQHAVYDNAIGFNIELRGLSSNYGLGTQEMLRSNILPYQNTL”, the “total protein half-life in vivo” value is, setting by setting: under setting [1], 6.76 ± 0.85 h; under setting [2], 6.59 ± 0.56 h; under setting [3], 6.39 ± 0.33 h; under setting [4], 6.28 ± 0.42 h; under setting [5], 6 ± 0.24 h; under setting [6], 3.25 ± 0.27 h. Also, the “total protein half-life in vivo” value by setting is: under setting [7], 6.269 ± 0.016 h; under setting [8], 13.3 ± 0.19 h; under setting [9], 6.7 ± 0.21 h; under setting [10], 13 ± 0.44 h; under setting [11], 6.34 ± 0.59 h; under setting [12], 13.5 ± 0.86 h.
